T1: HuNoV GII.2 VLP (Human norovirus GII.2, UniProt A0A291L9K1 1-542)
T1 sequence: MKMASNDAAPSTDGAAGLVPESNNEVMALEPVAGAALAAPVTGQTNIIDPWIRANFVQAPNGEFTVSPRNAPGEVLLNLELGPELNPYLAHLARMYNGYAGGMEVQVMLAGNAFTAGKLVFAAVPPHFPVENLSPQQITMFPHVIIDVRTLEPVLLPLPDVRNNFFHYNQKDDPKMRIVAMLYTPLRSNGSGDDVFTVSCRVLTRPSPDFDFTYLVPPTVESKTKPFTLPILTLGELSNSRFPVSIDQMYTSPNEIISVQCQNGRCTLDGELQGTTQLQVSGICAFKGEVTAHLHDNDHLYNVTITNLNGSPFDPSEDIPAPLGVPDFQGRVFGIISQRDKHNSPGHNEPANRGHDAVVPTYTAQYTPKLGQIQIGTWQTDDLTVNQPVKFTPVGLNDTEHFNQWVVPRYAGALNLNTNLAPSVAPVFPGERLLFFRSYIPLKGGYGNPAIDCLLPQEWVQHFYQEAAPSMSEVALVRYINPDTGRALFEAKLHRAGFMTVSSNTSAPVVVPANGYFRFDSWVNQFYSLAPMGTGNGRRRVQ


Target: T1, HuNoV GII.2 VLP
Experiment: dot blot

Row | Binder | binding result
1 | GGAACACGACCCGTCTGTGGCCATCACAGTACAGCATCGTCGTG (ssDNA) [AP17-4] | binds
2 | AACACGACAACCCTGTGACCAACGAACCACACCAAAGTGGGC (ssDNA) [AP4-2] | binds
